The values below come from patent US20210214413A1.

Substitutions are numbered along the chain they refer to. Names may count otherwise.

Assay [1] concerns the target rhinovirus C15 virus (recombinant RV-C isolate C15, sucrose purified) (rhinovirus C15). Nature of the assay: IP (α-His mAb) of refolded bacterial protein (100 pmol) with C15 virus (10^7 PFUe), Western blot. On the technique in general: A western blot detects proteins with antibodies after separation by electrophoresis.
Assay [2] shares this target. The description is as above. The source holds these as a separate data set.
For assay [3] the target is unchanged. Nature of the assay: HeLa-expressed protein recovered by α-His IP, denatured and refolded, reacted with C15 virus, α-His IP, Western blot.
The target is the same in assay [4]. Nature of the assay: IP (α-CDHR3 mAb) of transfected HeLa cell lysate reacted with C15 virus, Western blot.
Assay [5] shares this target. Nature of the assay: IP of CDHR3 with C15 virus, Western blot; multiple experiments and CDHR3 contexts.

Consider “rEC1 (FLAG-CDHR3 EC1-His, CDHR3 residues 20-130), bacterially produced and refolded (receptor)”, for which the virus-binding efficiency (Binding % relative to positive control) in assay [1] was determined as 100%.

As to “rEC1-2 (FLAG-CDHR3 EC1-2-His, CDHR3 residues 20-237), bacterially produced and refolded (from UniProt Q6ZTQ4 20-237) (receptor)”, the virus-binding efficiency (Binding % relative to positive control) in assay [1] is 87%.

Regarding “rEC1-3 (FLAG-CDHR3 EC1-3-His, CDHR3 residues 20-345 with C345A), bacterially produced and refolded (from UniProt Q6ZTQ4 20-344) (receptor)”, the virus-binding efficiency (Binding % relative to positive control) in assay [1] was found to be 61%. Same read-out and setting: the value for “rEC1+3(Δ2) (FLAG-CDHR3 EC1+3(Δ2), residues 20-345 Δ129-231 with C345A), bacterially produced and refolded (from UniProt Q6ZTQ4 20-344) (receptor)” was 68%.

B1: rEC1-3 K43A (CDHR3 residues 20-345 with K43A and C345A), bacterially produced and refolded (receptor)
chain: MASDYKDDDDKLHLILLPATGNVAENSPPGTSVHAFSVKLSASLSPVIPGFPQIVNSNPLTEAFRVNWLSGTYFEVVTTGMEQLDFETGPNIFDLQIYVKDEVGVTDLQVLTVQVTDVNEPPQFQGNLAEGLHLYIVERANPGFIYQVEAFDPEDTSRNIPLSYFLISPPKSFRMSANGTLFSTTELDFEAGHRSFHLIVEVRDSGGLKASTELQVNIVNLNDEVPRFTSPTRVYTVLEELSPGTIVANITAEDPDDEGFPSHLLYSITTVSKYFMINQLTGTIQVAQRIDRDAGELRQNPTISLEVLVKDRPYGGQENRIQITFIVEDVNDNPATAGTKHHHHHH
B1: in assay [2], the Binding % (C15 signal normalized to recombinant protein signal, relative to WT rEC1-3) is 22%.

B2: rEC1-3 N186A (CDHR3 residues 20-345 with N186A and C345A), bacterially produced and refolded (receptor)
chain: B1 chain with A35K, N178A
Take B2: the Binding % (C15 signal normalized to recombinant protein signal, relative to WT rEC1-3) in assay [2] was 85 % of WT.

B3: pHL-FLAG-CDHR3-His EC1-3 (1-345), HeLa-expressed (receptor)
chain: DYKDDDDKLHLILLPATGNVAENSPPGTSVHKFSVKLSASLSPVIPGFPQIVNSNPLTEAFRVNWLSGTYFEVVTTGMEQLDFETGPNIFDLQIYVKDEVGVTDLQVLTVQVTDVNEPPQFQGNLAEGLHLYIVERANPGFIYQVEAFDPEDTSRNIPLSYFLISPPKSFRMSANGTLFSTTELDFEAGHRSFHLIVEVRDSGGLKASTELQVNIVNLNDEVPRFTSPTRVYTVLEELSPGTIVANITAEDPDDEGFPSHLLYSITTVSKYFMINQLTGTIQVAQRIDRDAGELRQNPTISLEVLVKDRPYGGQENRIQITFIVEDVNDNPATCHHHHHH
B3: the Binding % after refolding, relative to the same protein not refolded in assay [3] came to 213%.

B4: full-length FLAG-CDHR3 Y529 N186Q (receptor)
chain: DYKDDDDKLHLILLPATGNVAENSPPGTSVHKFSVKLSASLSPVIPGFPQIVNSNPLTEAFRVNWLSGTYFEVVTTGMEQLDFETGPNIFDLQIYVKDEVGVTDLQVLTVQVTDVNEPPQFQGNLAEGLHLYIVERANPGFIYQVEAFDPEDTSRNIPLSYFLISPPKSFRMSAQGTLFSTTELDFEAGHRSFHLIVEVRDSGGLKASTELQVNIVNLNDEVPRFTSPTRVYTVLEELSPGTIVANITAEDPDDEGFPSHLLYSITTVSKYFMINQLTGTIQVAQRIDRDAGELRQNPTISLEVLVKDRPYGGQENRIQITFIVEDVNDNPATCQKFTFSIMVPERTAKGTLLLDLNKFCFDDDSEAPNNRFNFTMPSGVGSGSRFLQDPAGSGKIVLIGDLDYENPSNLAAGNKYTVIIQVQDVAPPYYKNNVYVYILTSPENEFPLIFDRPSYVFDVSERRPARTRVGQVRATDKDLPQSSLLYSISTGGASLQYPNVFWINPKTGELQLVTKVDYETTPIYILRIQATNNEDTSSVTVTVNILEENDEKPICTPNSYFLALPVDLKVGTNIQNFKLTCTDLDSSPRSFRYSIGPGNVNNHFTFSPNAGSNVTRLLLTSRFDYAGGFDKIWDYKLLVYVTDDNLMSDRKKAEALVETGTVTLSIKVIPHPTTIITTTPRPRVTYQVLRKNVYSPSAWYVPFVITLGSILLLGLLVYLVVLLAKAIHRHCPCKTGKNKEPLTKKGETKTAERDVVVETIQMNTIFDGEAIDPVTGETYEFNSKTGARKWKDPLTQMPKWKESSHQGAAPRRVTAGEGMGSLRSANWEEDELSGKAWAEDAGLGSRNEGGKLGNPKNRNPAFMNRAYPKPHPGK
As to B4, in assay [4], the Binding % (C15 signal normalized to CDHR3 signal, relative to WT) is 19%.

B5: full-length FLAG-CDHR3 Y529 N186A (receptor)
chain: B4 chain with Q175A
Turning to B5, in assay [4], the Binding % (C15 signal normalized to CDHR3 signal, relative to WT) turned out to be 11%.

B6: full-length FLAG-CDHR3 Y529 W76A (receptor)
chain: B4 chain with W65A, Q175N
On to B6, for which the more virus pull-down than comparable WT sequences (% more than WT) in assay [5] was in the range of 50 to 80.

B7: full-length FLAG-CDHR3 Y529 R166A (receptor)
chain: B4 chain with R155A, Q175N
Take B7: the Binding % (C15 signal normalized to CDHR3 signal, relative to WT) in assay [4] is 16%.

B8: full-length FLAG-CDHR3 Y529 K43A (receptor)
chain: B4 chain with K32A, Q175N
With B8, the Binding % (C15 signal normalized to CDHR3 signal, relative to WT) in assay [4] came to 46%.
